Our source for the Km and kcat values is PMC4034487, “Immobilization of a Pleurotus ostreatus Laccase Mixture on Perlite and Its Application to Dye Decolourisation” (BioMed Research International, 2014).

Substrate in this data set: CCn1c(=NN=c2sc3cc(S(=O)(=O)O)ccc3n2CC)sc2cc(S(=O)(=O)O)ccc21
The data set can be described thus: purified protein. The class given is biochemical, Pleurotus ostreatus. The following applies: free soluble enzyme, 0.1 M sodium citrate pH 3.0, 25°C (general assay).

B1: POXC (Pleurotus ostreatus) (protein)
chain: AIGPAGNMYIVNEDVSPDGFARSAVVARSVPATDPTPATASIPGVLVQGNKGDNFQLNVVNQLSDTTMLKTTSIHWHGFFQAGSSWADGPAFVTQCPVASGDSFLYNFNVPDQAGTFWYHSHLSTQYCDGLRGPFVVYDPSDPHLSLYDIDNADTVITLEDWYHIVAPQNAAIPTPDSTLINGKGRYAGGPTSPLAIINVESNKRYRFRLVSMSCDPNFTFSIDGHSLLVIEADAVNIVPITVDSIQIFAGQRYSFVLTANQAVDNYWIRANPNLGSTGFVGGINSAILRYAGATEDDPTTTSSTSTPLLETNLVPLENPGAPGPPVPGGADININLAMAFDFTTFELTINGVPFLPPTAPVLLQILSGASTAASLLPSGSIYELEANKVVEISMPALAVGGPHPFHLHGHTFDVIRSAGSTTYNFDTPARRDVVNTGTGANDNVTIRFVTDNPGPWFLHCHIDWHLEIGLAVVFAEDVTSISAPPAAWDDLCPIYNALSDNDKGGIVPS
notes: native purified laccase isoenzyme from P. ostreatus; soluble form
Take B1: the Michaelis-Menten constant (Km) is 0.03 mM and the catalytic constant (kcat) is 620000 min⁻¹.

By Km is commonly meant the concentration of substrate that gives half-maximal velocity. A word on the kcat: it is the number of substrate molecules converted per active site and unit of time at saturation.
